The chains are these.
T1: C-terminally FLAG-tagged human Gas6 recombinant protein (hGas6-F) (human, UniProt Q14393 31-678, gamma-carboxylated glutamic acid residues in the Gla domain (producer cells co-express rat VKOR and human GGCX); positions not given)
T1 construct: also called human Gas6-F; human Gas6 protein
T1 sequence: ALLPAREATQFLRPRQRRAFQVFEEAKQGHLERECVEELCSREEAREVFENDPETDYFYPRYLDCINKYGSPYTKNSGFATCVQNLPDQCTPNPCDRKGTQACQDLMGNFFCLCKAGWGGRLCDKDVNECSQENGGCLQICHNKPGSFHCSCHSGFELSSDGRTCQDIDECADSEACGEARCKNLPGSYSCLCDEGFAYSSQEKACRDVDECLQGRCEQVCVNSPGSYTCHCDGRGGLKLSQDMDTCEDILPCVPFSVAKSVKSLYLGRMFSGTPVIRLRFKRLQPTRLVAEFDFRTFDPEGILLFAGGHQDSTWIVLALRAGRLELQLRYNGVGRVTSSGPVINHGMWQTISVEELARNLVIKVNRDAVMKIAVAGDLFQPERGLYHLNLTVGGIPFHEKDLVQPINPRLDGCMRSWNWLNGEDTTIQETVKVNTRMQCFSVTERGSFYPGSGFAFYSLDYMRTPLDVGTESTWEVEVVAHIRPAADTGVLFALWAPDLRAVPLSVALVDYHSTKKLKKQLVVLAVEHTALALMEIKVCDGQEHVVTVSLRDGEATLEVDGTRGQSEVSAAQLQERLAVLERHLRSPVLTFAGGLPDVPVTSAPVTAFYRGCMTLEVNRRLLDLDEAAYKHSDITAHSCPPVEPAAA

B1: hzKM5321 LV3HV0 antibody (antibody, V domains shown)
VH: QVHLVQSGSELKKPGASVKISCKASGYTFTNYGMNWVRQAPGQGLEWMGWINTNTGEPTYTEEFKGRFVFSLDTSVTTSYLQISTLKAEDTAVYFCARDEGWFVYWGQGTLVTVSS
VL: ETTLTQSPSSLSASTGDRVTITCITSTDIDDDMNWYQQKPGKAPKLLISEGNTLRPGVPSRFSGSGSGTDFTLTISSTQPEDFADYYCLQTDSVPLTFGQGTKVEIK
notes: Humanized; variant human IgG4 constant region (EU S228P, L235E, R409K), human kappa; also called B-06; LV3HV0
B2: hzKM5321 LV4HV0 antibody (antibody, V domains shown)
VH: QVHLVQSGSELKKPGASVKISCKASGYTFTNYGMNWVRQAPGQGLEWMGWINTNTGEPTYTEEFKGRFVFSLDTSVTTSYLQISTLKAEDTAVYFCARDEGWFVYWGQGTLVTVSS
VL: ETTLTQSPSSLSVSTGDRVTITCITSTDIDDDMNWYQQKPGKAPKLLISEGNTLRPGVPSRFSGSGSGTDFTFTISSTQPEDFATYYCLQTDSVPLTFGQGTKVEIK
notes: Humanized; variant human IgG4 constant region (EU S228P, L235E, R409K), human kappa; also called B-07; LV4HV0
B3: hzKM5321 LV6HV2a antibody (antibody, V domains shown)
VH: QVHLVQSGSELKKPGASVKISCKASGYTFTNYGMNWVKQAPGQGLKWMGWINTNTGEPTYTEEFKGRFVFSLDTSVTTSYLQISTLKAEDTAVYFCARDEGWFVYWGQGTLVTVSS
VL: ETTLTQSPSSLSVSTGDRVTITCITSTDIDDDMNWYQQKPGKPPKLLISEGNTLRPGVPSRFSSSGSGTDFTLTISSTQPEDFADYYCLQTDSVPLTFGQGTKVEIK
notes: Humanized; variant human IgG4 constant region (EU S228P, L235E, R409K), human kappa; also called B-23; LV6HV2a
B4: hzKM5321 LV6HV0 antibody (antibody, V domains shown)
VH: QVHLVQSGSELKKPGASVKISCKASGYTFTNYGMNWVRQAPGQGLEWMGWINTNTGEPTYTEEFKGRFVFSLDTSVTTSYLQISTLKAEDTAVYFCARDEGWFVYWGQGTLVTVSS
VL: ETTLTQSPSSLSVSTGDRVTITCITSTDIDDDMNWYQQKPGKPPKLLISEGNTLRPGVPSRFSSSGSGTDFTLTISSTQPEDFADYYCLQTDSVPLTFGQGTKVEIK
notes: Humanized; variant human IgG4 constant region (EU S228P, L235E, R409K), human kappa; also called B-08; LV6HV0
B5: hzKM5321 LV3HV7 antibody (antibody, V domains shown)
VH: QIHLVQSGPELKKPGASVKISCKASGYTFTNYGMNWVKQAPGQGLKWMGWINTNTGEPTYTEEFKGRFVFSLDTSVTTAYLQISTLKAEDTATYFCARDEGWFVYWGQGTLITVSS
VL: ETTLTQSPSSLSASTGDRVTITCITSTDIDDDMNWYQQKPGKAPKLLISEGNTLRPGVPSRFSGSGSGTDFTLTISSTQPEDFADYYCLQTDSVPLTFGQGTKVEIK
notes: Humanized; variant human IgG4 constant region (EU S228P, L235E, R409K), human kappa; also called B-16; LV3HV7
B6: hzKM5321 LV4HV7 antibody (antibody, V domains shown)
VH: QIHLVQSGPELKKPGASVKISCKASGYTFTNYGMNWVKQAPGQGLKWMGWINTNTGEPTYTEEFKGRFVFSLDTSVTTAYLQISTLKAEDTATYFCARDEGWFVYWGQGTLITVSS
VL: ETTLTQSPSSLSVSTGDRVTITCITSTDIDDDMNWYQQKPGKAPKLLISEGNTLRPGVPSRFSGSGSGTDFTFTISSTQPEDFATYYCLQTDSVPLTFGQGTKVEIK
notes: Humanized; variant human IgG4 constant region (EU S228P, L235E, R409K), human kappa; also called B-17; LV4HV7
B7: hzKM5321 LV6HV3a antibody (antibody, V domains shown)
VH: QVHLVQSGPELKKPGASVKISCKASGYTFTNYGMNWVRQAPGQGLKWMGWINTNTGEPTYTEEFKGRFVFSLDTSVTTSYLQISTLKAEDTATYFCARDEGWFVYWGQGTLVTVSS
VL: ETTLTQSPSSLSVSTGDRVTITCITSTDIDDDMNWYQQKPGKPPKLLISEGNTLRPGVPSRFSSSGSGTDFTLTISSTQPEDFADYYCLQTDSVPLTFGQGTKVEIK
notes: Humanized; variant human IgG4 constant region (EU S228P, L235E, R409K), human kappa; also called B-25; LV6HV3a

“And” between values parts separate entries of the source, which are not always exact repeats. Identical values can stand only once.

The target of this test is T1, C-terminally FLAG-tagged human Gas6 …. The test is described as follows: SPR Biacore T100, captured antibody, Gas6 analyte, first test. The method, then:
An anti-human IgG antibody was immobilized on a CM5 sensor chip (manufactured by GE Healthcare Japan Corp.) using Human Antibody Capture Kit (manufactured by GE Healthcare Japan Corp.) according to the attached manual. Each test antibody adjusted to 1 μg/mL was added for 10 seconds at a flow rate of 10 μL/min to flow cells. […] The measurement was performed by the […] method. The obtained sensorgram was analyzed using Bia Evaluation Software (manufactured by GE Healthcare Japan Corp.), and the kinetic constant of each antibody was calculated.
A general note: SPR reads the build-up and loss of mass on a sensor chip optically.
As for B1, the Kd (as a rule, a measure of binding affinity in units of concentration) was below 1.86 nM; the koff (commonly the rate constant with which the complex falls apart) was determined as 0.000285 s⁻¹; the kon (usually the second-order rate constant of association) was above 153000 M⁻¹ s⁻¹.

For B2, the Kd is below 4.38 nM, the off-rate constant (koff) came to 0.000551 s⁻¹ and the kon was above 126000 M⁻¹ s⁻¹.

With B3, the Kd was below 2.07 nM, the koff is 0.000212 s⁻¹ and the kon was above 102000 M⁻¹ s⁻¹.

With B4, the Kd was below 1.19 nM; the koff was 0.000159 s⁻¹ and 0.000238 s⁻¹; the kon is above 134000 M⁻¹ s⁻¹.

With B5, the Kd is below 7.03 nM, the koff amounted to 0.000712 s⁻¹ and the kon is above 101000 M⁻¹ s⁻¹.

Consider B6, for which the Kd is below 8.59 nM, the koff was found to be 0.000859 s⁻¹ and the kon is above 100000 M⁻¹ s⁻¹.

On to B7, for which the Kd is below 2.15 nM, the koff was 0.000226 s⁻¹ and the kon is above 105000 M⁻¹ s⁻¹.

Values taken from patent publication US20180339041A1 (Kyowa Kirin, published 2018).
